From US20250361298A1 come the findings set out here.

Test [1] has as its target T1, Human LY6G6D ectodomain fused to mouse IgG2A Fc (monovalent display, knob-in-hole) (human).
T1 sequence (O95868 whole entry, looked up): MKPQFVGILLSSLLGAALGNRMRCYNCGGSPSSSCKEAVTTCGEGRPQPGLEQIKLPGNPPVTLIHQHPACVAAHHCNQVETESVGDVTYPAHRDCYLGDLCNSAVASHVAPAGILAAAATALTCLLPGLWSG
The test can be described thus: SPR, Biacore 8K+, LY6G6D-mouse Fc captured by anti-mouse antibody on CM5, antibody as analyte 50-0.7813 nM, 25 C.

Test [2] has as its target Cynomolgus LY6G6D ectodomain fused to mouse IgG2A Fc (monovalent display, knob-in-hole) (cynomolgus). The test can be described thus: SPR, Biacore 8K+, cyno LY6G6D-mouse Fc captured by anti-mouse antibody on CM5, antibody as analyte 50-0.7813 nM, 25 C. In general terms: SPR reads the build-up and loss of mass on a sensor chip optically.

Cynomolgus LY6G6D ectodomain fused to mouse IgG2A Fc (monovalent display, knob-in-hole) (cynomolgus), sequence (O95868 other isoform, or with tags, fused parts or gaps limits assumed): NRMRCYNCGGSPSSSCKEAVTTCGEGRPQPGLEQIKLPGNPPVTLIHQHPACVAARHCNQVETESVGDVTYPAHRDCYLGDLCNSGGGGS

B1: 20A12.QNTv12 (antibody, from another filing, V domains shown)
VH: EVQLLESGGGLVQPGGSLRLSCAASGFDFVNNAMIWVRQAPGKGLEWVSALSFADNTAYYATWASGRFTISRDSSKTTVYLQMNSLRAEDTAVYYCMRGDLWGPGTLVTVSS
VL: DIQMTQSPSTLSASVGDRVTITCQASESITRYLNWYQQKPGKAPKLLIYDASKLPSGVPSRFSGSGSGTEFTLTISSLQPDDFATYYCQSTSFRGRSYQNTFGGGTKVEIKR
For orientation: Kd means the concentration at which binding is half-saturated. A word on the kon: it is the rate constant with which the complex forms. Higher therefore signals faster complex formation. Broadly, the koff is the first-order rate constant of dissociation. Low readings indicate a long-lived complex, high ones a short-lived complex. Regarding B1, in test [1], the Kd was 3.67 nM and the on-rate constant (kon) is 109000 M⁻¹ s⁻¹. In test [2], the dissociation constant Kd was 3.4 nM, the off-rate constant (koff) was 0.00038 s⁻¹ and the association rate constant (kon) came out at 112000 M⁻¹ s⁻¹.
